Test results from US20160324936.

Tested on: GST-p21

Substance | in vitro kinase assay: 32P-labeling of GST-p21, SDS-PAGE and autoradiography
GFP-tagged kinase dead (K67M) mutant of PIM-1 (GFP-PIM-DN) | this activity was abolished in the Pim-DN construct
GFP-tagged wild-type 34 kDa human PIM-1 (GFP-PIM-wt) | Pim-wt overexpression phosphorylates p21
